T1: GIP receptor (UniProt P48546 22-466)
T1 sequence (looked up): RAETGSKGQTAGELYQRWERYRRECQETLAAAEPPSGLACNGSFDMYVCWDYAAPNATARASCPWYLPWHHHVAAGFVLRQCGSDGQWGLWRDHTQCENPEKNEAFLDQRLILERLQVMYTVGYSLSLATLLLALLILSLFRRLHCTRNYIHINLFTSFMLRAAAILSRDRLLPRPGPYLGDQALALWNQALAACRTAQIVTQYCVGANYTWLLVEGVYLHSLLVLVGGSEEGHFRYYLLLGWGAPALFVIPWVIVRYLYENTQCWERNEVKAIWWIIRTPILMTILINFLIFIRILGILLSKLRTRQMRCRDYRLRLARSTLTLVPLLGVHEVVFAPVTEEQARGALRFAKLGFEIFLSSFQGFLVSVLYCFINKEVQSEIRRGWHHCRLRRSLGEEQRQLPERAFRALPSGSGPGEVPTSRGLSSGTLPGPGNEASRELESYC

B1: peptide of SEQ ID NO: 28 (peptide)
peptide: H[dS]QGTFTSDK([γGlu-Palmitoyl])SKYLDERAAQDFVQWLLDGRK-NH2
modifications: N-terminus assumed
SMILES: CCCCCCCCCCCCCCCC(=O)N[C@@H](CCC(=O)NCCCC[C@H](NC(=O)[C@H](CC(=O)O)NC(=O)[C@H](CO)NC(=O)[C@@H](NC(=O)[C@H](Cc1ccccc1)NC(=O)[C@@H](NC(=O)CNC(=O)[C@H](CCC(N)=O)NC(=O)[C@@H](CO)NC(=O)[C@@H](N)Cc1c[nH]cn1)[C@@H](C)O)[C@@H](C)O)C(=O)N[C@@H](CO)C(=O)N[C@@H](CCCCN)C(=O)N[C@@H](Cc1ccc(O)cc1)C(=O)N[C@@H](CC(C)C)C(=O)N[C@@H](CC(=O)O)C(=O)N[C@@H](CCC(=O)O)C(=O)N[C@@H](CCCNC(=N)N)C(=O)N[C@@H](C)C(=O)N[C@@H](C)C(=O)N[C@@H](CCC(N)=O)C(=O)N[C@@H](CC(=O)O)C(=O)N[C@@H](Cc1ccccc1)C(=O)N[C@H](C(=O)N[C@@H](CCC(N)=O)C(=O)N[C@@H](Cc1c[nH]c2ccccc12)C(=O)N[C@@H](CC(C)C)C(=O)N[C@@H](CC(C)C)C(=O)N[C@@H](CC(=O)O)C(=O)NCC(=O)N[C@@H](CCCNC(=N)N)C(=O)N[C@@H](CCCCN)C(N)=O)C(C)C)C(=O)O
B2: peptide of SEQ ID NO: 23 (peptide)
peptide: H[Aib]QGTFTSDK([γGlu-γGlu-Palmitoyl])SKYLD[Aib]RAAQDFVQWLMKGRG-NH2
modifications: N-terminus assumed
SMILES: CCCCCCCCCCCCCCCC(=O)N[C@@H](CCC(=O)N[C@@H](CCC(=O)NCCCC[C@H](NC(=O)[C@H](CC(=O)O)NC(=O)[C@H](CO)NC(=O)[C@@H](NC(=O)[C@H](Cc1ccccc1)NC(=O)[C@@H](NC(=O)CNC(=O)[C@H](CCC(N)=O)NC(=O)C(C)(C)NC(=O)[C@@H](N)Cc1c[nH]cn1)[C@@H](C)O)[C@@H](C)O)C(=O)N[C@@H](CO)C(=O)N[C@@H](CCCCN)C(=O)N[C@@H](Cc1ccc(O)cc1)C(=O)N[C@@H](CC(C)C)C(=O)N[C@@H](CC(=O)O)C(=O)NC(C)(C)C(=O)N[C@@H](CCCNC(=N)N)C(=O)N[C@@H](C)C(=O)N[C@@H](C)C(=O)N[C@@H](CCC(N)=O)C(=O)N[C@@H](CC(=O)O)C(=O)N[C@@H](Cc1ccccc1)C(=O)N[C@H](C(=O)N[C@@H](CCC(N)=O)C(=O)N[C@@H](Cc1c[nH]c2ccccc12)C(=O)N[C@@H](CC(C)C)C(=O)N[C@@H](CCSC)C(=O)N[C@@H](CCCCN)C(=O)NCC(=O)N[C@@H](CCCNC(=N)N)C(=O)NCC(N)=O)C(C)C)C(=O)O)C(=O)O
B3: peptide of SEQ ID NO: 24 (peptide)
peptide: H[Aib]QGTFTSDK([γGlu-γGlu-Palmitoyl])SKYLD[Aib]RAAQDFVQWLKDGRG-NH2
modifications: N-terminus assumed
SMILES: CCCCCCCCCCCCCCCC(=O)N[C@@H](CCC(=O)N[C@@H](CCC(=O)NCCCC[C@H](NC(=O)[C@H](CC(=O)O)NC(=O)[C@H](CO)NC(=O)[C@@H](NC(=O)[C@H](Cc1ccccc1)NC(=O)[C@@H](NC(=O)CNC(=O)[C@H](CCC(N)=O)NC(=O)C(C)(C)NC(=O)[C@@H](N)Cc1c[nH]cn1)[C@@H](C)O)[C@@H](C)O)C(=O)N[C@@H](CO)C(=O)N[C@@H](CCCCN)C(=O)N[C@@H](Cc1ccc(O)cc1)C(=O)N[C@@H](CC(C)C)C(=O)N[C@@H](CC(=O)O)C(=O)NC(C)(C)C(=O)N[C@@H](CCCNC(=N)N)C(=O)N[C@@H](C)C(=O)N[C@@H](C)C(=O)N[C@@H](CCC(N)=O)C(=O)N[C@@H](CC(=O)O)C(=O)N[C@@H](Cc1ccccc1)C(=O)N[C@H](C(=O)N[C@@H](CCC(N)=O)C(=O)N[C@@H](Cc1c[nH]c2ccccc12)C(=O)N[C@@H](CC(C)C)C(=O)N[C@@H](CCCCN)C(=O)N[C@@H](CC(=O)O)C(=O)NCC(=O)N[C@@H](CCCNC(=N)N)C(=O)NCC(N)=O)C(C)C)C(=O)O)C(=O)O
B4: peptide of SEQ ID NO: 27 (peptide)
peptide: H[dS]QGTFTSDK([γGlu-Palmitoyl])SKYLDERAAQDFVQWLLKGRG-NH2
modifications: N-terminus assumed
SMILES: CCCCCCCCCCCCCCCC(=O)N[C@@H](CCC(=O)NCCCC[C@H](NC(=O)[C@H](CC(=O)O)NC(=O)[C@H](CO)NC(=O)[C@@H](NC(=O)[C@H](Cc1ccccc1)NC(=O)[C@@H](NC(=O)CNC(=O)[C@H](CCC(N)=O)NC(=O)[C@@H](CO)NC(=O)[C@@H](N)Cc1c[nH]cn1)[C@@H](C)O)[C@@H](C)O)C(=O)N[C@@H](CO)C(=O)N[C@@H](CCCCN)C(=O)N[C@@H](Cc1ccc(O)cc1)C(=O)N[C@@H](CC(C)C)C(=O)N[C@@H](CC(=O)O)C(=O)N[C@@H](CCC(=O)O)C(=O)N[C@@H](CCCNC(=N)N)C(=O)N[C@@H](C)C(=O)N[C@@H](C)C(=O)N[C@@H](CCC(N)=O)C(=O)N[C@@H](CC(=O)O)C(=O)N[C@@H](Cc1ccccc1)C(=O)N[C@H](C(=O)N[C@@H](CCC(N)=O)C(=O)N[C@@H](Cc1c[nH]c2ccccc12)C(=O)N[C@@H](CC(C)C)C(=O)N[C@@H](CC(C)C)C(=O)N[C@@H](CCCCN)C(=O)NCC(=O)N[C@@H](CCCNC(=N)N)C(=O)NCC(N)=O)C(C)C)C(=O)O
B5: peptide of SEQ ID NO: 25 (peptide)
peptide: H[Aib]QGTFTSDK([γGlu-γGlu-Palmitoyl])SKYLD[Aib]RAAQDFVQWLKDGRP-NH2
modifications: N-terminus assumed
SMILES: CCCCCCCCCCCCCCCC(=O)N[C@@H](CCC(=O)N[C@@H](CCC(=O)NCCCC[C@H](NC(=O)[C@H](CC(=O)O)NC(=O)[C@H](CO)NC(=O)[C@@H](NC(=O)[C@H](Cc1ccccc1)NC(=O)[C@@H](NC(=O)CNC(=O)[C@H](CCC(N)=O)NC(=O)C(C)(C)NC(=O)[C@@H](N)Cc1c[nH]cn1)[C@@H](C)O)[C@@H](C)O)C(=O)N[C@@H](CO)C(=O)N[C@@H](CCCCN)C(=O)N[C@@H](Cc1ccc(O)cc1)C(=O)N[C@@H](CC(C)C)C(=O)N[C@@H](CC(=O)O)C(=O)NC(C)(C)C(=O)N[C@@H](CCCNC(=N)N)C(=O)N[C@@H](C)C(=O)N[C@@H](C)C(=O)N[C@@H](CCC(N)=O)C(=O)N[C@@H](CC(=O)O)C(=O)N[C@@H](Cc1ccccc1)C(=O)N[C@H](C(=O)N[C@@H](CCC(N)=O)C(=O)N[C@@H](Cc1c[nH]c2ccccc12)C(=O)N[C@@H](CC(C)C)C(=O)N[C@@H](CCCCN)C(=O)N[C@@H](CC(=O)O)C(=O)NCC(=O)N[C@@H](CCCNC(=N)N)C(=O)N1CCC[C@H]1C(N)=O)C(C)C)C(=O)O)C(=O)O
B6: peptide of SEQ ID NO: 26 (peptide)
peptide: H[Aib]QGTFTSDK([γGlu-γGlu-Palmitoyl])SKYLD[Aib]RAAQDFVQWLK[Aib]GRG-NH2
modifications: N-terminus assumed
SMILES: CCCCCCCCCCCCCCCC(=O)N[C@@H](CCC(=O)N[C@@H](CCC(=O)NCCCC[C@H](NC(=O)[C@H](CC(=O)O)NC(=O)[C@H](CO)NC(=O)[C@@H](NC(=O)[C@H](Cc1ccccc1)NC(=O)[C@@H](NC(=O)CNC(=O)[C@H](CCC(N)=O)NC(=O)C(C)(C)NC(=O)[C@@H](N)Cc1c[nH]cn1)[C@@H](C)O)[C@@H](C)O)C(=O)N[C@@H](CO)C(=O)N[C@@H](CCCCN)C(=O)N[C@@H](Cc1ccc(O)cc1)C(=O)N[C@@H](CC(C)C)C(=O)N[C@@H](CC(=O)O)C(=O)NC(C)(C)C(=O)N[C@@H](CCCNC(=N)N)C(=O)N[C@@H](C)C(=O)N[C@@H](C)C(=O)N[C@@H](CCC(N)=O)C(=O)N[C@@H](CC(=O)O)C(=O)N[C@@H](Cc1ccccc1)C(=O)N[C@H](C(=O)N[C@@H](CCC(N)=O)C(=O)N[C@@H](Cc1c[nH]c2ccccc12)C(=O)N[C@@H](CC(C)C)C(=O)N[C@@H](CCCCN)C(=O)NC(C)(C)C(=O)NCC(=O)N[C@@H](CCCNC(=N)N)C(=O)NCC(N)=O)C(C)C)C(=O)O)C(=O)O
B7: peptide of SEQ ID NO: 14 (peptide)
peptide: H[Aib]QGTFTSDYSKYLDERRA[Aib]EFVC(40K‑TE PEG)WLLDT-NH2

Consider 7 molecules from patent publication US20140206607A1 (INDIANA UNIVERSITY RESEARCH AND TECHNOLOGY, published 2014).

Numbered stars: 1 amine (or outer) side, 2 acyl side, 3 side chain; on linkers, the order of the positions; unused ones are H or OH. Square brackets hold non-standard residues; d marks the D form. Side chains are listed from the residue outwards. Ends that are not written are not given here. * marks the point of attachment. 40K‑TE PEG = 40 kDa PEG covalently bound via thioether, formed by reaction of the free thiol of the peptide (Cys side chain) with an iodoacetic-functionalized PEG; γGlu = O=C(O)[C@H](CCC(=O)[*:2])N[*:1]; Palmitoyl = CCCCCCCCCCCCCCCC(=O)*; Aib = CC(C)(N)C(=O)O

Sequence of glucagon receptor (P47871 26-477 limits assumed): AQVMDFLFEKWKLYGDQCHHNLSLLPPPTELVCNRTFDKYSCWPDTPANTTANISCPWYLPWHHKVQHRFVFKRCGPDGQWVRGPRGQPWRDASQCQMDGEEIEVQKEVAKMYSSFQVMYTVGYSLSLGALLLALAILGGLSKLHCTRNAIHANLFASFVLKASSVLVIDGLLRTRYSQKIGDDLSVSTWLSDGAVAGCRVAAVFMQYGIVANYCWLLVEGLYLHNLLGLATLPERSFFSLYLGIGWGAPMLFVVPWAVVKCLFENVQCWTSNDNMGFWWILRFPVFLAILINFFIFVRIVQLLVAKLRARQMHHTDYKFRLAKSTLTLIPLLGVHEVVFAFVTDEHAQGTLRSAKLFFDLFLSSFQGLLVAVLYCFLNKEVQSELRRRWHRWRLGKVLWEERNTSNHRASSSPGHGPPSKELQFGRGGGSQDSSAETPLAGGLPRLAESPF

The target of the first experiment is GLP-1 receptor (UniProt P43220 24-463, limits assumed). Put plainly: cell-based or functional assay.
With B1, the “EC50 (nM) at GLP-1 receptor” value came out at 0.003 nM.

Regarding B2, the “EC50 (nM) at GLP-1 receptor” value turned out to be 0.004 nM.

B3: the “EC50 (nM) at GLP-1 receptor” value was 0.004 nM.

For the molecule B4, the “EC50 (nM) at GLP-1 receptor” value was 0.005 nM.

In the case of B5, the “EC50 (nM) at GLP-1 receptor” value was determined as 0.003 nM.

On to B6, for which the “EC50 (nM) at GLP-1 receptor” value amounted to 0.004 nM.

Take B7: the “EC50 (nM) at GLP-1 receptor” value was determined as 0.076 nM.

The next experiment has as its target glucagon receptor (UniProt P47871 26-477, limits assumed). Put plainly: cell-based or functional assay.
B1: the “EC50 (nM) at glucagon receptor” value was found to be 0.015 nM.

As to B2, the “EC50 (nM) at glucagon receptor” value was determined as 0.023 nM.

For B3, the “EC50 (nM) at glucagon receptor” value is 0.021 nM.

With B4, the “EC50 (nM) at glucagon receptor” value amounted to 0.022 nM.

For the molecule B5, the “EC50 (nM) at glucagon receptor” value was determined as 0.035 nM.

For B6, the “EC50 (nM) at glucagon receptor” value worked out at 0.106 nM.

In the case of B7, the “EC50 (nM) at glucagon receptor” value came out at 0.365 nM.

The target of another experiment is T1, GIP receptor. Put plainly: cell-based or functional assay.
B1: the “EC50 (nM) at GIP receptor” value was found to be 2.84 nM.

Consider B2, for which the “EC50 (nM) at GIP receptor” value was found to be 1.58 nM.

B3: the “EC50 (nM) at GIP receptor” value is 1.46 nM.

Turning to B4, the “EC50 (nM) at GIP receptor” value is 2.12 nM.

Turning to B5, the “EC50 (nM) at GIP receptor” value was determined as 2.36 nM.

In the case of B6, the “EC50 (nM) at GIP receptor” value was 3.29 nM.

As to B7, the “EC50 (nM) at GIP receptor” value came out at 33.7 nM.
